B1: RsbV (residues 1–109) (natural protein, Bacillus subtilis strain 168, UniProt P17903 1-109, looked up)
chain: MNINVDVKQNENDIQVNIAGEIDVYSAPVLREKLVPLAEQGADLRICLKDVSYMDSTGLGVFVGTFKMVKKQGGSLKLENLSERLIRLFDITGLKDIIDISAKSEGGVQ
notes: Anti-anti-sigma-B factor RsbV, Bacillus subtilis strain 168, residues 1-109 (called full-length); Tag removed with TEV protease; also called full-length RsbV; anti-anti-sigma factor RsbV; source: E. coli BL21 Star (DE3); co-expressed with RsbW (modified pETDuet-1) or expressed alone (modified pET-28b); purified (HisTrap, TEV cleavage, SEC); not shown: His6, N-terminal, cleaved; thioredoxin, …
B2: RsbW_(5–145) (residues 5–145) (domain or fragment, Bacillus subtilis strain 168, UniProt P17904 5-145, looked up)
chain: ADYIEMKVPAQPEYVGIIRLTLSGVASRMGYTYDEIEDLKIAVSEACTNAVQHAYKEDKNGEVSIRFGVFEDRLEVIVADEGDSFDFDQKQQDLGPYTPSHTVDQLSEGGLGLYLMETLMDEVRVQNHSGVTVAMTKYLNG
notes: Residues 59–64 and 85–113 (monoclinic) or 86–109 (hexagonal) are not visible in the crystal structures; also called truncated RsbW
B3: RsbW (residues 1–160), expressed alone (natural protein, Bacillus subtilis strain 168, UniProt P17904 1-160, looked up)
chain: MKNNADYIEMKVPAQPEYVGIIRLTLSGVASRMGYTYDEIEDLKIAVSEACTNAVQHAYKEDKNGEVSIRFGVFEDRLEVIVADEGDSFDFDQKQQDLGPYTPSHTVDQLSEGGLGLYLMETLMDEVRVQNHSGVTVAMTKYLNGERVDHDTTIKNYETN
notes: Anti-sigma-B factor RsbW, Bacillus subtilis strain 168, residues 1-160; 'RsbV and RsbW alone were similarly expressed and purified following the same procedures'; also called RsbW alone; source: E. coli BL21 Star (DE3), modified pET-28b, purified (HisTrap, TEV cleavage, Superdex 75 SEC); not shown: His6, N-terminal, cleaved; thioredoxin, N-terminal, cleaved
B4: RsbW (residues 1–160), co-expressed with SigB (natural protein, Bacillus subtilis strain 168, UniProt P17904 1-160, looked up)
chain: B3 chain
notes: Anti-sigma-B factor RsbW, Bacillus subtilis strain 168, residues 1-160; source: E. coli BL21 Star (DE3), co-expressed with SigB (modified pETDuet-1), co-purified as RsbW–SigB complex
B5: RsbW (residues 1–160), co-expressed with RsbV (natural protein, Bacillus subtilis strain 168, UniProt P17904 1-160, looked up)
chain: B3 chain
notes: Serine-protein kinase / anti-sigma-B factor RsbW, Bacillus subtilis strain 168, residues 1-160 (called full-length); Four copies stand in the RsbV–RsbW octamer; also called full-length RsbW; anti-sigma factor RsbW

In data set [1] the target is B5. The data set is described as follows: AF4-MALS; co-purified complexes or RsbW alone in phosphate-buffered saline pH 7.4; 50 µl injected. The note with it: both partners purified.
Data set [2] deals with the molecule itself. The data set is described as follows: crystal structure; RsbV_(1–104)–RsbW_(5–145) complex; monoclinic crystals (25% PEG 1500, 100 mM SPG pH 8.5, 3.4 Å) and hexagonal crystals (20% PEG 3350, 200 mM potassium formate, excess ADP, 3.1 Å), 20°C.
Data set [3] concerns the molecule itself. Nature of the data set: AF4-MALS; co-purified complexes or RsbW alone in phosphate-buffered saline pH 7.4; 50 µl injected.
The target of a further data set is T1, SigB (residues 1–262) (Bacillus subtilis strain 168, UniProt P06574 1-262).
T1 construct: RNA polymerase sigma-B factor SigB, Bacillus subtilis strain 168, residues 1-262; also called alternative sigma factor SigB; source: E. coli BL21 Star (DE3), co-expressed with RsbW (modified pETDuet-1), co-purified as RsbW–SigB complex
T1 sequence (looked up): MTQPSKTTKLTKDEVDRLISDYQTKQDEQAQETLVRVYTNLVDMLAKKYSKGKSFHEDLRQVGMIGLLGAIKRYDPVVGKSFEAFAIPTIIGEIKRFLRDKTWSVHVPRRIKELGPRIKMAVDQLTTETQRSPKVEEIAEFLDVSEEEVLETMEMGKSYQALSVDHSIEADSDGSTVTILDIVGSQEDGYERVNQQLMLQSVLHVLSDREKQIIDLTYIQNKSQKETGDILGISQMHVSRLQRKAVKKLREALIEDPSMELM
The description is as above. To be noted: both partners purified.

In the case of B1, the “stoichiometry N” value in data set [1] amounted to 1 RsbV per RsbW. Take B2: in data set [2], the “stoichiometry N” value came out at 4.

Regarding B3, the “stoichiometry N” value in data set [3] was found to be 4. As to B4, the “stoichiometry N” value in the data set with SigB (residues 1–262) is 2 RsbW per SigB; in data set [3], 4. Turning to B5, the “stoichiometry N” value in data set [3] stood at 4.

Source of the values: paper PMC7340262, “Structural insights into the regulation of SigB activity by RsbV and RsbW” (IUCrJ, 2020).
